Reference: PMC5904244, “Oligomeric states in sodium ion-dependent regulation of cyanobacterial histidine kinase-2” (Protoplasma, 2017)
Several values for one entry are separate records, joined by “and”; a condition that tells them apart may be missing. Equal values may be shown once.

Legend:
[1] = target: the molecule itself; assay: SEC; Superdex 200 10/300GL, 20 mM Tris-HCl pH 7.6, 500 mM NaCl (high salt); apparent molecular masses from a calibration curve
[2] = target: the molecule itself; assay: SEC; Superdex 200 10/300GL, 20 mM Tris-HCl pH 7.6, 10 mM NaCl (low salt); apparent molecular masses from a calibration curve
[3] = target: the molecule itself; assay: negative-stain transmission electron microscopy, single-particle analysis; dilution series on carbon-coated grids, 2% uranyl acetate; class averages assigned subjectively to oligomeric families; buffer and salt not stated
[4] = target: the molecule itself; assay: cross-linking; DSP (1-11 mM; 2 mM in later experiments), 2-50 uM Hik2, 25 mM HEPES-NaOH pH 7.5, 5 mM KCl, 5 mM MgCl2, 23 °C, 10 min; no NaCl treatment; non-reducing 10% SDS-PAGE, Coomassie

B1: truncated core kinase domain of Thermosynechococcus elongatus BP-1 Hik2 containing only the DHp and CA subdomains (domain or fragment, UniProt Q8DMC5 142-385, looked up)
chain: SHSPAQPLDQRQQRFDDLLHQLRNPVAAIRTFVKLLLKRLEPDHKGRPLAEGIAKETERLMALLEDYRQQRNDIPALTGSQPLPLAGKPLDLAETLLPLISAAQARAEMEGKTFVVEIPPQLPPIWLEERVLQEVVGNLLDNAFKYTPKGGTIGLRLMLSSPALELTVWDTGCGIPKEAQPRLFERGYRGVQADSGIEGSGLGLAIAQDLLRPYGLSLRVTSPYAGDRGTAFTLAIPWQMKVEP
notes: Hik2 (tlr0195), Thermosynechococcus elongatus BP-1, kinase domain (DHp and CA), amino acids 142-386; calculated molecular mass 26.2 kDa; The forward primer has catatgATG, so added N-terminal Met residues are likely; A C-terminal His tag from the vector is surmised
[1]
  stoichiometry N: 4
[2]
  stoichiometry N: 6

B2: truncated DHp domain of Thermosynechococcus elongatus BP-1 Hik2 (domain or fragment, UniProt Q8DMC5 142-270, looked up)
chain: SHSPAQPLDQRQQRFDDLLHQLRNPVAAIRTFVKLLLKRLEPDHKGRPLAEGIAKETERLMALLEDYRQQRNDIPALTGSQPLPLAGKPLDLAETLLPLISAAQARAEMEGKTFVVEIPPQLPPIWLEE
notes: Hik2 (tlr0195), Thermosynechococcus elongatus BP-1, DHp domain, amino acids 142-270; calculated molecular mass 15.1 kDa; The forward primer has catatgATG, so added N-terminal Met residues are likely; A C-terminal His tag from the vector is surmised
[1]
  stoichiometry N: 6
[2]
  stoichiometry N: 8

B3: full-length Thermosynechococcus elongatus BP-1 Hik2 (enzyme, UniProt Q8DMC5 1-385, looked up)
chain: MLWPASEEFAALCRTQLELVVNSLGASSLAVYLSETLNDSPSWSPVAVYPEAASLLSLAIPPTLPPPTQVPETSLSHYPQQVVSSLANQLILPLMYQNWVLGVLVAQRQHRPWLAAEQAQLQQVAQTLAIACVLDQRQQWLSHSPAQPLDQRQQRFDDLLHQLRNPVAAIRTFVKLLLKRLEPDHKGRPLAEGIAKETERLMALLEDYRQQRNDIPALTGSQPLPLAGKPLDLAETLLPLISAAQARAEMEGKTFVVEIPPQLPPIWLEERVLQEVVGNLLDNAFKYTPKGGTIGLRLMLSSPALELTVWDTGCGIPKEAQPRLFERGYRGVQADSGIEGSGLGLAIAQDLLRPYGLSLRVTSPYAGDRGTAFTLAIPWQMKVEP
notes: Histidine kinase 2 (Hik2), tlr0195, Thermosynechococcus elongatus BP-1, full length; calculated molecular mass 44.2 kDa; The forward primer has catatgATG, so one extra N-terminal Met may be present; A C-terminal His tag from the vector is surmised
[1]
  stoichiometry N: 4
[2]
  stoichiometry N: 6

B4: full-length Synechocystis sp. PCC 6803 histidine kinase 2 (Hik2) (enzyme, UniProt P73276 1-434, looked up)
chain: MAGSISSMYSPSAGLISLCQSQVRLLQQGLRVDWCGVYLNQEETEQGLVPLVVSHGSTLVESESYGLISLPQGEVSPPMDDFSLPAVPVGVGQLSRRSRLEPPPFDADKRLVLPLVYGEEMVGLLVIHRSQGQWHGEEMMQLEAIAKSLAVACLLDQQQDWYRQAWEEQNQQYQWERQHWADLLHQLRNPLTALKTFSKLLLKRWHGDNKSQQVVEGIVRQGEHLQELLQSFEASQSQGPEAVPLLSSSPVTTIQVLPPADRVETMPLANFSLGEVLPPILLAHQAIAAERNITLTAQIALIDTVVMANRLALREVVNNLLDNGIKYTPNGGLVEVSLALEKVSSSGMDWATLAIADTGYGIPPEDQQKIFERNYRGVQGRGSINGTGLGLAIVADLVAQMGGKITVTSPNGLSRDPDQPGSTFTLWLRSGEQV
notes: Histidine kinase 2 (Hik2), slr1147, Synechocystis sp; PCC 6803, full length; calculated molecular mass 48.5 kDa
[3]
  stoichiometry N: 2 and 3
[4]
  stoichiometry N: 4 and 6 and 8
